One assay concerns the target MDM2 (UniProt Q00987 1-491). The assay can be described thus: FP; reduced.
Assay [1] deals with T1, Bcl-2 (UniProt P10415 1-239). The assay can be described thus: FP.
Assay [2] has as its target T1, Bcl-2. The assay can be described thus: SPR. For orientation: In SPR one partner is held on a chip, and binding of the other changes the refractive index at the surface.

Bridges are numbered along the chain shown (N, C = ends). Where no end group is shown, it is not given here.

This is an account of results in publication PMC8409457 (2021).

T1 sequence (P10415 whole entry): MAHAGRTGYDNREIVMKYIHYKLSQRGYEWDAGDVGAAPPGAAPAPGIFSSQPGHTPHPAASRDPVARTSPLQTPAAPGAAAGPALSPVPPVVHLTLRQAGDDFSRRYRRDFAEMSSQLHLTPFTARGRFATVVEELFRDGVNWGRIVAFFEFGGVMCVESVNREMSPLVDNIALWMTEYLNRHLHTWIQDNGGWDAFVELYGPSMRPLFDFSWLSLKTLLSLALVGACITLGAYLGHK
MDM2, sequence (Q00987 whole entry): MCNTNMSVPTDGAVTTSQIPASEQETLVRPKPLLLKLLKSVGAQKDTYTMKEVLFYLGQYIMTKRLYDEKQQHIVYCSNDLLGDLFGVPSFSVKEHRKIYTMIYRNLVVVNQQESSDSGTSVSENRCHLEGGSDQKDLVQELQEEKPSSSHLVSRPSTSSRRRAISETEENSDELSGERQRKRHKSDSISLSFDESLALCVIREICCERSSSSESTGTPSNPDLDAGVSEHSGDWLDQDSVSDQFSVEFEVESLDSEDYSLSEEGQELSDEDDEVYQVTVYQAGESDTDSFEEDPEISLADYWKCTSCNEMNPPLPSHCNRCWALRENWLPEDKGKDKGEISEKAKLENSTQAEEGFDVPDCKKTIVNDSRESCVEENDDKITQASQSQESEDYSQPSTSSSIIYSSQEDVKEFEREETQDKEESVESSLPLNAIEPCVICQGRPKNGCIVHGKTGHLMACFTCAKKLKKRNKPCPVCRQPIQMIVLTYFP

One may read the Ki as the dissociation constant of the complex between target and ligand, obtained from inhibition or displacement. A lower Ki goes with tighter binding. In turn, GCEKATESESPCPCIFPELCPWIVCC (cysteines reduced (no disulfide bonds)) [reduced linear peptide 15] came in with a Ki with MDM2 of 1120 nM.

For orientation: koff means the rate constant with which the complex falls apart. In the assay with Bcl-2 [1], GCMILLDTDIWCPCSHPYACPENICC (disulfide 12-26 (inferred); disulfide 14-20, 2-25) [oxidized peptide 16] yielded a Ki of 770 nM. Moreover, in the assay with Bcl-2 [2], the koff worked out at 0.0498 s⁻¹.
